Measurements reported in patent US20130156764A1, “NEUTRALIZATION OF FLT3 LIGAND AS A LEUKEMIA THERAPY” (The Johns Hopkins University, priority 2010, published 2013).

How the values were obtained:
[1] = test system: FLT3 (wt, ITD, TKD) in FL−/− MEF cells; experiment: FL stimulation, FLT3 phosphorylation in FL−/− MEF cells expressing wtFLT3, FLT3/ITD, FLT3/TKD; format: cell-based, mice
Experimental: Embryos were removed from female FL^−/− mice (purchased from Taconic, Hudson, N.Y.) on day 13 or 14 of pregnancy. Internal organs and heads were removed. The remainder of the embryos were washed, minced, digested with Trypsin/EDTA, and then resuspended in DMEM containing 10% FBS followed by centrifuging at 1000×g for 5 minutes. The cell pellet was resuspended in DMEM containing 10% FBS and cultured at 37° C. with 5% CO2. After 3 passages, the cells were transfected with CMV-SV40-large T antigen to immortalize FL^−/− MEF cells. The FL^−/− MEF cells represent bulk cells after transformation.
Retrovirus was obtained by harvesting supernatant 48 hours after transfection of 293T cells with pBabePuro constructs. […]
To eliminate the complicating factor of autocrine, paracrine, and intracrine FL expression on mutant FLT3 activation, FL^−/− MEF cells were established from FL^−/− mice. […] The addition of FL induced more than a 4-fold increase in FLT3 phosphorylation in FL^−/− MEF-FLT3, FL^−/− MEF-ITD, and FL^−/− MEF-TKD cells (quantitated by GS-800 Calibrated Densitometer (Bio-Rad) and Quantity One software (Bio-Rad)) (FIG. 10B, lanes 4, 6, and 8 versus lanes 3, 5, and 7). […]
The effect of endogenous FL expression on the activation of FLT3/ITD and FLT3/TKD mutant receptors were next examined. […] The expression of FL was assessed by the detection of the secreted form of FL in the cell culture supernatant. […]

[2] = target: T1, FLT3/ITD in MV411 cells (Homo sapiens, UniProt P36888, INS600HVDFREYEYD); experiment: FL stimulation, FLT3 phosphorylation in MV411 cells; format: cell-based
T1 construct: endogenous in cells; host or cells: MV411
T1 sequence (P36888 with tags, fused parts or gaps INS600HVDFREYEYD): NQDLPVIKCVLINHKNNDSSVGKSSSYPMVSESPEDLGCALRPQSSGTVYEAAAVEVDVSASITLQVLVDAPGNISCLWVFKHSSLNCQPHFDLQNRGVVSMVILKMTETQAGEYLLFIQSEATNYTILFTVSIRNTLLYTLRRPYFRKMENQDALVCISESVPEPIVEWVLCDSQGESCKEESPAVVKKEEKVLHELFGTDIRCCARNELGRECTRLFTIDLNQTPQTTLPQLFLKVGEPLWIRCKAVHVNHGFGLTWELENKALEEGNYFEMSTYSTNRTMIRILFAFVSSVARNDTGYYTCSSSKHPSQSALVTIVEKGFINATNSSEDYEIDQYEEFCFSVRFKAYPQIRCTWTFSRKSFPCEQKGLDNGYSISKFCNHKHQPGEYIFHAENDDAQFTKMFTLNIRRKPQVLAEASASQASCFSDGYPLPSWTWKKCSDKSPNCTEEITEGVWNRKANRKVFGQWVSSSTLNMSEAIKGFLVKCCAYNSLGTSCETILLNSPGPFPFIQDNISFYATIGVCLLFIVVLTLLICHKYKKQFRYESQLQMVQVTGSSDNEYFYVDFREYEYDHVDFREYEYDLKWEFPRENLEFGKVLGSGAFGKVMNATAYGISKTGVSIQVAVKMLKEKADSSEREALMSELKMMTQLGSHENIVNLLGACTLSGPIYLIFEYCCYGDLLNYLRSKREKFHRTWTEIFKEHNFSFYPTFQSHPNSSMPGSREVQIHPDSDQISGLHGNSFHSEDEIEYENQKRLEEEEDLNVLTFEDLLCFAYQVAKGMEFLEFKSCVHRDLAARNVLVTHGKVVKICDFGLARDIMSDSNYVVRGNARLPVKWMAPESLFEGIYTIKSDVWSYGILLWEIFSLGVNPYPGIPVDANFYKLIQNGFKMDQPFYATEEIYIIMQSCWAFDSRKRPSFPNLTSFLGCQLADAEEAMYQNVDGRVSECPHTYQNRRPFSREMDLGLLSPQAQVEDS

[3] = test system: MV411 cells; experiment: Survival (MTT) of MV411 cells with FL; format: cell-based, human; conditions: MV411, serum-free, 4 days
Experimental: (§1) 2×10^4 cells in 100 μl serum-free medium were plated into triplicate wells of 96-well plates. Survival was assessed by MTT assay (Roche, Indianapolis, Ind.) and viable cell number counting by trypan blue (GIBCO, Rockville, Md.) exclusion according to the manufacturer's instructions.
The MV411 cell line is a human leukemia-derived cell line expressing a FLT3/ITD mutation and has lost the wild-type allele. […] MV411 cells express endogenous FL that might diminish the degree of the effect of exogenous FL on FLT3/ITD mutant receptor. To evaluate the effect of FL on the survival of MV411 cells, MV411 cells were cultured in serum-free medium in the presence and absence of FL for 4 days.

[4] = test system: primary AML blasts expressing homozygous FLT3/ITD mutations; experiment: Survival (MTT) of primary AML blasts with FL; format: cell-based, human; conditions: complete medium, 4 days
Experimental: as §1
To study whether further activation of mutant FLT3 receptors in response to FL also occurs in primary cells, experiments were carried on primary AML blasts expressing homozygous FLT3/ITD mutations (i.e., no detectable wild type FLT3 by PCR). The blasts were stimulated with 100 ng/mL FL. […] The survival of AML blasts was assessed by culturing them in complete medium with and without FL for 4 days.

phosphorylation of FLT3 [2]: increased phosphorylation
B1: FL: Recombinant human FL (fms-related tyrosine kinase ligand) purchased from PeproTech; SEQ ID NO: 1 (protein, listed as Homo sapiens)
chain: MTVLAPAWSPTTYLLLLLLLSSGLSGTQDCSFQHSPISSDFAVKIRELSDYLLQDYPVTVASNLQDEELCGGLWRLVLAQRWMERLKTVAGSKMQGLLERVNTEIHFVTKCAFQPPPSCLRFVQTNISRLLQETSEQLVALKPWITRQNFSRCLELQCQPDSSTLPPPWSPRPLEATAPTAPQPPLLLLLLLPVGLLLLAAAWCLHWQRTRRRTPRPGEQVPPVPSPQDLLLVEH
increase in FLT3 phosphorylation ([1]; FL−/− MEF-FLT3, MEF-ITD and MEF-TKD cells, serum-free, FL 100 ng/mL 15 minutes): > 4 fold
FLT3 phosphorylation in cells expressing endogenous FL ([1]; exogenous FL 100 ng/mL, MEF-FLT3, MEF-ITD, MEF-TKD cells stably expressing FL): did not further augment
survival [3]: prolonged survival
patient samples with increased survival of AML blasts [4]: three of four
